Data from PMC12572195 (Nature Communications, 2025).

Target: SPT6 (human, UniProt Q7KZ85 1-1726)
Experiment: cell-based or functional assay

B1: SETD2 (residues 1446-2564) (domain or fragment)
chain: GPSCVMDDFRDPQRWKECAKQGKMPCYFDLIEENVYLTERKKNKSHRDIKRMQCECTPLSKDERAQGEIACGEDCLNRLLMIECSSRCPNGDYCSNRRFQRKQHADVEVILTEKKGWGLRAAKDLPSNTFVLEYCGEVLDHKEFKARVKEYARNKNIHYYFMALKNDEIIDATQKGNCSRFMNHSCEPNCETQKWTVNGQLRVGFFTTKLVPSGSELTFDYQFQRYGKEAQKCFCGSANCRGYLGGENRVSIRAAGGKMKKERSRKKDSVDGELEALMENGEGLSDKNQVLSLSRLMVRIETLEQKLTCLELIQNTHSQSCLKSFLERHGLSLLWIWMAELGDGRESNQKLQEEIIKTLEHLPIPTKNMLEESKVLPIIQRWSQTKTAVPPLSEGDGYSSENTSRAHTPLNTPDPSTKLSTEADTDTPKKLMFRRLKIISENSMDSAISDATSELEGKDGKEDLDQLENVPVEEEEELQSQQLLPQQLPECKVDSETNIEASKLPTSEPEADAEIEPKESNGTKLEEPINEETPSQDEEEGVSDVESERSQEQPDKTVDISDLATKLLDSWKDLKEVYRIPKKSQTEKENTTTERGRDAVGFRDQTPAPKTPNRSRERDPDKQTQNKEKRKRRSSLSPPSSAYERGTKRPDDRYDTPTSKKKVRIKDRNKLSTEERRKLFEQEVAQREAQKQQQQMQNLGMTSPLPYDSLGYNAPHHPFAGYPPGYPMQAYVDPSNPNAGKVLLPTPSMDPVCSPAPYDHAQPLVGHSTEPLSAPPPVPVVPHVAAPVEVSSSQYVAQSDGVVHQDSSVAVLPVPAPGPVQGQNYSVWDSNQQSVSVQQQYSPAQSQATIYYQGQTCPTVYGVTSPYSQTTPPIVQSYAQPSLQYIQGQQIFTAHPQGVVVQPAAAVTTIVAPGQPQPLQPSEMVVTNNLLDLPPPSPPKPKTIVLPPNWKTARDPEGKIYYYHVITRQTQWDPPTWESPGDDASLEHEAEMDLGTPTYDENPMKASKKPKTAEADTSSELAKKSKEVFRKEMSQFIVQCLNPYRKPDCKVGRITTTEDFKHLARKLTHGVMNKELKYCKNPEDLECNENVKHKTKEYIKKYMQKFGAVYKPKEDTELE
co-transcriptional methylation assay (3H activity) with SETD2 Construct 4 (includes the complete SBR, lacks the SRI domain): ~50 % of WT
